# Data reported in US20240270846A1 (published 2024).
# Target: T1, CD3 epsilon homodimer protein (UniProt P07766 23-126)
# T1 construct: construct not described; homodimer as printed; also called CD3 (CD3 epsilon)
# Test: SPR Biacore T200, CD3 epsilon homodimer immobilized; vs unaltered GLS3000;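 also: antibody variants flowed as analyte over CD3 epsilon homodimer amine-coupled to a CM4 chip, at 25 °C in HBS-EP+ running buffer, fitted with Biacore T200 Evaluation Software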
# T1 sequence (P07766 23-126): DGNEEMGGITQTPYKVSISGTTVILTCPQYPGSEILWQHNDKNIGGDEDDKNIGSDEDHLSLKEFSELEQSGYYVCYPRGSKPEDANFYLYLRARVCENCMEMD
row,Binder,KD ratio to GLS3000 (Affinity up)
1,"GLS3000 S25E (Kabat) L chain altered form, one-arm antibody with CE115HA000 (antibody, human IgG1, kappa, L234A L235A, N297A, name in Kabat numbering, one-arm antibody) heavy: QVQLVESGGGVVQPGRSLRLSCAASGFTFSNAWMHWVRQAPGKGLEWVAQIKAKSNNYATYYAESVKGRFTISRDDSKNSLYLQMNSLKTEDTAVYYCRYVHYGAYYGVDAWGQGTTVTVSSASTKGPSVFPLAPSSKSTSGGTAALGCLVKDYFPEPVTVSWNSGALTSGVHTFPAVLQSSGLYSLSSVVTVPSSSLGTQTYICNVNHKPSNTKVDKKVEPKSCDKTHTCPPCPAPEAAGGPSVFLFPPKPKDTLMISRTPEVTCVVVDVSHEDPEVKFNWYVDGVEVHNAKTKPREEQYASTYRVVSVLTVLHQDWLNGKEYKCKVSNKALPAPIEKTISKAKGQPREPQVYTLPPSRCELTKNQVSLSCAVKGFYPSDIAVEWESNGQPENNYKTTPPVLDSDGSFFLVSKLTVDKSRWQQGNVFSCSVMHEALHNHYTQKSLSLSPDYKDDDDK EPKSSDKTHTCPPCPAPELLGGPSVFLFPPKPKDTLMISRTPEVTCVVVDVSHEDPEVKFNWYVDGVEVHNAKTKPREEQYNSTYRVVSVLTVLHQDWLNGKEYKCKVSNKALPAPIEKTISKAKGQPREPQVCTLPPSRDELTKNQVSLWCLVKGFYPSDIAVEWESNGQPENNYKTTPPVLDSDGSFFLYSKLTVDKSRWQQGNVFSCSVMHEALHNRYTQKSLSLSP light: DIVMTQSPLSLPVTPGEPASISCRESQSLVHSNRNTYLHWYQQKPGQAPRLLIYKVSNRFSGVPDRFSGSGSGTDFTLKISRVEAEDVGVYYCGQGTQVPYTFGQGTKLEIKRTVAAPSVFIFPPSDEQLKSGTASVVCLLNNFYPREAKVQWKVDNALQSGNSQESVTEQDSKDSTYSLSSTLTLSKADYEKHKVYACEVTHQGLSSPVTKSFNRGEC",6.54
2,"GLS3000 S25L (Kabat) L chain altered form, one-arm antibody with CE115HA000 (antibody, human IgG1, kappa, L234A L235A, N297A, name in Kabat numbering, one-arm antibody) heavy: QVQLVESGGGVVQPGRSLRLSCAASGFTFSNAWMHWVRQAPGKGLEWVAQIKAKSNNYATYYAESVKGRFTISRDDSKNSLYLQMNSLKTEDTAVYYCRYVHYGAYYGVDAWGQGTTVTVSSASTKGPSVFPLAPSSKSTSGGTAALGCLVKDYFPEPVTVSWNSGALTSGVHTFPAVLQSSGLYSLSSVVTVPSSSLGTQTYICNVNHKPSNTKVDKKVEPKSCDKTHTCPPCPAPEAAGGPSVFLFPPKPKDTLMISRTPEVTCVVVDVSHEDPEVKFNWYVDGVEVHNAKTKPREEQYASTYRVVSVLTVLHQDWLNGKEYKCKVSNKALPAPIEKTISKAKGQPREPQVYTLPPSRCELTKNQVSLSCAVKGFYPSDIAVEWESNGQPENNYKTTPPVLDSDGSFFLVSKLTVDKSRWQQGNVFSCSVMHEALHNHYTQKSLSLSPDYKDDDDK EPKSSDKTHTCPPCPAPELLGGPSVFLFPPKPKDTLMISRTPEVTCVVVDVSHEDPEVKFNWYVDGVEVHNAKTKPREEQYNSTYRVVSVLTVLHQDWLNGKEYKCKVSNKALPAPIEKTISKAKGQPREPQVCTLPPSRDELTKNQVSLWCLVKGFYPSDIAVEWESNGQPENNYKTTPPVLDSDGSFFLYSKLTVDKSRWQQGNVFSCSVMHEALHNRYTQKSLSLSP light: DIVMTQSPLSLPVTPGEPASISCRLSQSLVHSNRNTYLHWYQQKPGQAPRLLIYKVSNRFSGVPDRFSGSGSGTDFTLKISRVEAEDVGVYYCGQGTQVPYTFGQGTKLEIKRTVAAPSVFIFPPSDEQLKSGTASVVCLLNNFYPREAKVQWKVDNALQSGNSQESVTEQDSKDSTYSLSSTLTLSKADYEKHKVYACEVTHQGLSSPVTKSFNRGEC",4.93
3,"GLS3000 S25I (Kabat) L chain altered form, one-arm antibody with CE115HA000 (antibody, human IgG1, kappa, L234A L235A, N297A, name in Kabat numbering, one-arm antibody) heavy: QVQLVESGGGVVQPGRSLRLSCAASGFTFSNAWMHWVRQAPGKGLEWVAQIKAKSNNYATYYAESVKGRFTISRDDSKNSLYLQMNSLKTEDTAVYYCRYVHYGAYYGVDAWGQGTTVTVSSASTKGPSVFPLAPSSKSTSGGTAALGCLVKDYFPEPVTVSWNSGALTSGVHTFPAVLQSSGLYSLSSVVTVPSSSLGTQTYICNVNHKPSNTKVDKKVEPKSCDKTHTCPPCPAPEAAGGPSVFLFPPKPKDTLMISRTPEVTCVVVDVSHEDPEVKFNWYVDGVEVHNAKTKPREEQYASTYRVVSVLTVLHQDWLNGKEYKCKVSNKALPAPIEKTISKAKGQPREPQVYTLPPSRCELTKNQVSLSCAVKGFYPSDIAVEWESNGQPENNYKTTPPVLDSDGSFFLVSKLTVDKSRWQQGNVFSCSVMHEALHNHYTQKSLSLSPDYKDDDDK EPKSSDKTHTCPPCPAPELLGGPSVFLFPPKPKDTLMISRTPEVTCVVVDVSHEDPEVKFNWYVDGVEVHNAKTKPREEQYNSTYRVVSVLTVLHQDWLNGKEYKCKVSNKALPAPIEKTISKAKGQPREPQVCTLPPSRDELTKNQVSLWCLVKGFYPSDIAVEWESNGQPENNYKTTPPVLDSDGSFFLYSKLTVDKSRWQQGNVFSCSVMHEALHNRYTQKSLSLSP light: DIVMTQSPLSLPVTPGEPASISCRISQSLVHSNRNTYLHWYQQKPGQAPRLLIYKVSNRFSGVPDRFSGSGSGTDFTLKISRVEAEDVGVYYCGQGTQVPYTFGQGTKLEIKRTVAAPSVFIFPPSDEQLKSGTASVVCLLNNFYPREAKVQWKVDNALQSGNSQESVTEQDSKDSTYSLSSTLTLSKADYEKHKVYACEVTHQGLSSPVTKSFNRGEC",0.67
4,"GLS3000 S25P (Kabat) L chain altered form, one-arm antibody with CE115HA000 (antibody, human IgG1, kappa, L234A L235A, N297A, name in Kabat numbering, one-arm antibody) heavy: QVQLVESGGGVVQPGRSLRLSCAASGFTFSNAWMHWVRQAPGKGLEWVAQIKAKSNNYATYYAESVKGRFTISRDDSKNSLYLQMNSLKTEDTAVYYCRYVHYGAYYGVDAWGQGTTVTVSSASTKGPSVFPLAPSSKSTSGGTAALGCLVKDYFPEPVTVSWNSGALTSGVHTFPAVLQSSGLYSLSSVVTVPSSSLGTQTYICNVNHKPSNTKVDKKVEPKSCDKTHTCPPCPAPEAAGGPSVFLFPPKPKDTLMISRTPEVTCVVVDVSHEDPEVKFNWYVDGVEVHNAKTKPREEQYASTYRVVSVLTVLHQDWLNGKEYKCKVSNKALPAPIEKTISKAKGQPREPQVYTLPPSRCELTKNQVSLSCAVKGFYPSDIAVEWESNGQPENNYKTTPPVLDSDGSFFLVSKLTVDKSRWQQGNVFSCSVMHEALHNHYTQKSLSLSPDYKDDDDK EPKSSDKTHTCPPCPAPELLGGPSVFLFPPKPKDTLMISRTPEVTCVVVDVSHEDPEVKFNWYVDGVEVHNAKTKPREEQYNSTYRVVSVLTVLHQDWLNGKEYKCKVSNKALPAPIEKTISKAKGQPREPQVCTLPPSRDELTKNQVSLWCLVKGFYPSDIAVEWESNGQPENNYKTTPPVLDSDGSFFLYSKLTVDKSRWQQGNVFSCSVMHEALHNRYTQKSLSLSP light: DIVMTQSPLSLPVTPGEPASISCRPSQSLVHSNRNTYLHWYQQKPGQAPRLLIYKVSNRFSGVPDRFSGSGSGTDFTLKISRVEAEDVGVYYCGQGTQVPYTFGQGTKLEIKRTVAAPSVFIFPPSDEQLKSGTASVVCLLNNFYPREAKVQWKVDNALQSGNSQESVTEQDSKDSTYSLSSTLTLSKADYEKHKVYACEVTHQGLSSPVTKSFNRGEC",0.79
5,"GLS3000 S25T (Kabat) L chain altered form, one-arm antibody with CE115HA000 (antibody, human IgG1, kappa, L234A L235A, N297A, name in Kabat numbering, one-arm antibody) heavy: QVQLVESGGGVVQPGRSLRLSCAASGFTFSNAWMHWVRQAPGKGLEWVAQIKAKSNNYATYYAESVKGRFTISRDDSKNSLYLQMNSLKTEDTAVYYCRYVHYGAYYGVDAWGQGTTVTVSSASTKGPSVFPLAPSSKSTSGGTAALGCLVKDYFPEPVTVSWNSGALTSGVHTFPAVLQSSGLYSLSSVVTVPSSSLGTQTYICNVNHKPSNTKVDKKVEPKSCDKTHTCPPCPAPEAAGGPSVFLFPPKPKDTLMISRTPEVTCVVVDVSHEDPEVKFNWYVDGVEVHNAKTKPREEQYASTYRVVSVLTVLHQDWLNGKEYKCKVSNKALPAPIEKTISKAKGQPREPQVYTLPPSRCELTKNQVSLSCAVKGFYPSDIAVEWESNGQPENNYKTTPPVLDSDGSFFLVSKLTVDKSRWQQGNVFSCSVMHEALHNHYTQKSLSLSPDYKDDDDK EPKSSDKTHTCPPCPAPELLGGPSVFLFPPKPKDTLMISRTPEVTCVVVDVSHEDPEVKFNWYVDGVEVHNAKTKPREEQYNSTYRVVSVLTVLHQDWLNGKEYKCKVSNKALPAPIEKTISKAKGQPREPQVCTLPPSRDELTKNQVSLWCLVKGFYPSDIAVEWESNGQPENNYKTTPPVLDSDGSFFLYSKLTVDKSRWQQGNVFSCSVMHEALHNRYTQKSLSLSP light: DIVMTQSPLSLPVTPGEPASISCRTSQSLVHSNRNTYLHWYQQKPGQAPRLLIYKVSNRFSGVPDRFSGSGSGTDFTLKISRVEAEDVGVYYCGQGTQVPYTFGQGTKLEIKRTVAAPSVFIFPPSDEQLKSGTASVVCLLNNFYPREAKVQWKVDNALQSGNSQESVTEQDSKDSTYSLSSTLTLSKADYEKHKVYACEVTHQGLSSPVTKSFNRGEC",0.75
6,"GLS3000 S25M (Kabat) L chain altered form, one-arm antibody with CE115HA000 (antibody, human IgG1, kappa, L234A L235A, N297A, name in Kabat numbering, one-arm antibody) heavy: QVQLVESGGGVVQPGRSLRLSCAASGFTFSNAWMHWVRQAPGKGLEWVAQIKAKSNNYATYYAESVKGRFTISRDDSKNSLYLQMNSLKTEDTAVYYCRYVHYGAYYGVDAWGQGTTVTVSSASTKGPSVFPLAPSSKSTSGGTAALGCLVKDYFPEPVTVSWNSGALTSGVHTFPAVLQSSGLYSLSSVVTVPSSSLGTQTYICNVNHKPSNTKVDKKVEPKSCDKTHTCPPCPAPEAAGGPSVFLFPPKPKDTLMISRTPEVTCVVVDVSHEDPEVKFNWYVDGVEVHNAKTKPREEQYASTYRVVSVLTVLHQDWLNGKEYKCKVSNKALPAPIEKTISKAKGQPREPQVYTLPPSRCELTKNQVSLSCAVKGFYPSDIAVEWESNGQPENNYKTTPPVLDSDGSFFLVSKLTVDKSRWQQGNVFSCSVMHEALHNHYTQKSLSLSPDYKDDDDK EPKSSDKTHTCPPCPAPELLGGPSVFLFPPKPKDTLMISRTPEVTCVVVDVSHEDPEVKFNWYVDGVEVHNAKTKPREEQYNSTYRVVSVLTVLHQDWLNGKEYKCKVSNKALPAPIEKTISKAKGQPREPQVCTLPPSRDELTKNQVSLWCLVKGFYPSDIAVEWESNGQPENNYKTTPPVLDSDGSFFLYSKLTVDKSRWQQGNVFSCSVMHEALHNRYTQKSLSLSP light: DIVMTQSPLSLPVTPGEPASISCRMSQSLVHSNRNTYLHWYQQKPGQAPRLLIYKVSNRFSGVPDRFSGSGSGTDFTLKISRVEAEDVGVYYCGQGTQVPYTFGQGTKLEIKRTVAAPSVFIFPPSDEQLKSGTASVVCLLNNFYPREAKVQWKVDNALQSGNSQESVTEQDSKDSTYSLSSTLTLSKADYEKHKVYACEVTHQGLSSPVTKSFNRGEC",1.6
